Reference: doi:10.1101/786475 (bioRxiv, 2019)

Tests used:
Assay in all cases: peptide or protein array
[1] = target: T1, Cia1p (spotted on the yeast ProtoArray) (S. cerevisiae, UniProt Q05583 1-330)
T1 sequence (looked up): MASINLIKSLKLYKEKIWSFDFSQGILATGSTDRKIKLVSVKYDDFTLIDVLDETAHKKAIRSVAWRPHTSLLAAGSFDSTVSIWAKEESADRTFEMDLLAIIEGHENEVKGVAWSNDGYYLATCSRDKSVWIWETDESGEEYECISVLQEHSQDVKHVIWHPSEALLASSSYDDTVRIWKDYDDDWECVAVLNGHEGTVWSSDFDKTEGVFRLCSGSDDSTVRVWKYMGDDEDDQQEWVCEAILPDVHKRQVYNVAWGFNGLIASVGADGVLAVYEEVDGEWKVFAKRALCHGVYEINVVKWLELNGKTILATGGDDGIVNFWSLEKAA

[2] = target: T2, Gln1p (spotted on the yeast ProtoArray) (S. cerevisiae, UniProt P32288 1-370)
T2 sequence (looked up): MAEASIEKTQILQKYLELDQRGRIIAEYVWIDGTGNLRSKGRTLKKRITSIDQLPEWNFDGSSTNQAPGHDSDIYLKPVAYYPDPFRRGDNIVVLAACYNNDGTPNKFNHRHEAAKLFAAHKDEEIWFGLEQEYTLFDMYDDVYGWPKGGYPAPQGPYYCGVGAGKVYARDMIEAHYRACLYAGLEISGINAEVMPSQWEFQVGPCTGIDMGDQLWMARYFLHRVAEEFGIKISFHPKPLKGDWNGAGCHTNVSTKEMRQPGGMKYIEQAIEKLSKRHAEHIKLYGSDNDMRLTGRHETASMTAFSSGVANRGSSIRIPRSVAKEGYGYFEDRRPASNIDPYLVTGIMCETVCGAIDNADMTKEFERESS

[3] = target: T3, Qcr6p (spotted on the yeast ProtoArray) (S. cerevisiae, UniProt P00127 1-147)
T3 sequence (looked up): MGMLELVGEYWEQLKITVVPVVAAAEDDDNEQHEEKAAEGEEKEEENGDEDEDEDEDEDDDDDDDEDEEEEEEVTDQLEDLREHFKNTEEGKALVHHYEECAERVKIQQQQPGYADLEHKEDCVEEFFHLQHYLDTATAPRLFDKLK

[4] = target: T4, Gpp2p (spotted on the yeast ProtoArray) (S. cerevisiae, UniProt P40106 1-250)
T4 sequence (looked up): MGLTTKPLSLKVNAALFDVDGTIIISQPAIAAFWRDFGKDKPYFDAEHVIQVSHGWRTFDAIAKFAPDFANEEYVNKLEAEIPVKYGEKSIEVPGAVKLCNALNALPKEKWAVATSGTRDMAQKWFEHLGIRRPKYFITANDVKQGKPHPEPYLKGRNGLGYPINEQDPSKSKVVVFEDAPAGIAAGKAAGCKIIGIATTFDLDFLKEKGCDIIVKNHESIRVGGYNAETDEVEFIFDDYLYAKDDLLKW

[5] = target: T5, Ski8p (spotted on the yeast ProtoArray) (S. cerevisiae, UniProt Q02793 1-397)
T5 sequence (looked up): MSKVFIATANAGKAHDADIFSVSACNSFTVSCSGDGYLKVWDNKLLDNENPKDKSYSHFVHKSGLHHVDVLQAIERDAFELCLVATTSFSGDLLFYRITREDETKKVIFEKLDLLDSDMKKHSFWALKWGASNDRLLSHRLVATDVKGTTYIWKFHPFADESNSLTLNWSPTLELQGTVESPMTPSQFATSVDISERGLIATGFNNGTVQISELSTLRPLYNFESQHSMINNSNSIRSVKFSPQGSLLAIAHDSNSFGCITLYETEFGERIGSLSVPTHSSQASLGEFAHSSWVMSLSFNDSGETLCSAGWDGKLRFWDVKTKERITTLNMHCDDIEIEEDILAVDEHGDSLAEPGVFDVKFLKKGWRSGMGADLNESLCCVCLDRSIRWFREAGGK

[6] = target: T6, Nap1p (spotted on the yeast ProtoArray) (S. cerevisiae, UniProt P25293 1-417)
T6 sequence (looked up): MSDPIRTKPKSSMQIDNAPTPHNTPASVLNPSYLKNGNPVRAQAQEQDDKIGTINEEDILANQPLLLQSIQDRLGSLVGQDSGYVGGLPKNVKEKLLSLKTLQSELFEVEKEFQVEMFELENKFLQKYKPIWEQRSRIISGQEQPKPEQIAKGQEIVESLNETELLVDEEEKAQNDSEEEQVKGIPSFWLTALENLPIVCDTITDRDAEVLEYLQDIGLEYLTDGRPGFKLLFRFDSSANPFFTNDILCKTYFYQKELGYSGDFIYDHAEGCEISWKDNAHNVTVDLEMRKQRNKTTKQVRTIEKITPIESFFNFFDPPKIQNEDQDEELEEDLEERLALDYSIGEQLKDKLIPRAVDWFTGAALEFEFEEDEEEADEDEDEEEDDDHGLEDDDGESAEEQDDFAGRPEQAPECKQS

Measured: binding result

B1: purified and biotinylated cytoplasmic domain of the Msb2p protein (HIS-Msb2p^CYT) (domain or fragment, S. cerevisiae, UniProt P32334 1207-1306, looked up)
chain: AFKYIIRRRIQSQEIIKNPEISSISSSEFGGEKNYNNEKRMSVQESITQSMRIQNWMDDSYYGHGLTNNDSTPTRHNTSSSIPKISRPIASQNSLGWNEV
modifications: biotinylated in vitro (sites not given)
binds: all assays above
